Measurements as given in US20190194313A1 (JOINT STOCK COMPANY BIOCAD, published 2019).

Assays:
[1] = target: T1, Mouse sIL6R (mouse, UniProt P22272 20-364); assay: BLI, Octet Red 96, BCD89 immobilised on AR2G sensors; Table 2 prints '-' for KD
T1 construct: extracellular domain; also called mouse receptor; mouse IL-6R
T1 sequence (looked up): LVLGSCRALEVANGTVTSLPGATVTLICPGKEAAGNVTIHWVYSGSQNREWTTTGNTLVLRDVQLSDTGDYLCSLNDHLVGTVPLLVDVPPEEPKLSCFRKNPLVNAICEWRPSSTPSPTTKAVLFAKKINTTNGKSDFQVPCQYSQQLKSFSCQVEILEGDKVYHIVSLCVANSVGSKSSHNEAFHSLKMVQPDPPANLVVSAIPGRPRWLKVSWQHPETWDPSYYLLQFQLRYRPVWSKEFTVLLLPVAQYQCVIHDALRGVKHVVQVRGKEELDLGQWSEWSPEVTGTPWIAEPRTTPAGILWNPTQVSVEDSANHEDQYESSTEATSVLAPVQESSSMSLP
Source text: (§1) The interaction of the selected anti-IL6R with interleukin-6 receptors of cynomolgus, guinea pig, dog and mouse was examined with ELISA (FIG. 11, 12). The binding affinity constants of BCD89 antibody to IL-6sR alpha subunit of a human, cynomolgus, guinea pig, dog and mouse were obtained with Octet Red 96 (by ForteBio). BCD89 was nonspecifically immobilized onto the surface of amino reactive sensors of the second generation (AR2G) using standard protocol according to manufacturer's instruction for preparation and immobilization of AR2G sensors. Analysis was conducted at 30° C. using PBS comprising 0.1% Tween-20 and 0.1% BSA as a working buffer. Titration of IL-6R of a human, cynomolgus, guinea pig, dog, rabbit and mouse was performed using a running buffer from concentration of 126 nM to 2 nM, spacing 2.
(§2) Binding curves, after subtracting a reference signal, were analyzed using Octet Data Analysis software (Version 7.0) in accordance with the standard procedure and using 1:1 interaction model.

[2] = target: T2, Human sIL6R (recombinant IL-6sR alpha subunit of a human, Example 13) (human, UniProt P08887 20-365); assay: BLI, Octet Red 96, BCD89 immobilised on AR2G sensors, receptor titrated from 126 nM to 2 nM, 1:1 model
T2 construct: extracellular domain; also called recombinant IL-6R of a human; human IL-6R alpha subunit
T2 sequence (looked up): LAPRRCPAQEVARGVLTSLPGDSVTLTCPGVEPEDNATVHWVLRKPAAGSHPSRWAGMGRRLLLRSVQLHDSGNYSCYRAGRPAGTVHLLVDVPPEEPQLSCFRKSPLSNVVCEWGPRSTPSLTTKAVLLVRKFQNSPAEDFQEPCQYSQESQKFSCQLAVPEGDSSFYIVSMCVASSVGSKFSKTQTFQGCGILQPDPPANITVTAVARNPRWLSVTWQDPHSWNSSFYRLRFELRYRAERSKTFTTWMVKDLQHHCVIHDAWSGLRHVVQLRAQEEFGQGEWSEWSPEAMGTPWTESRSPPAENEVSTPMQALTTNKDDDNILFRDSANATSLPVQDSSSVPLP
Source text: as §1, §2

[3] = target: T3, Cynomolgus sIL6R (cynomolgus, UniProt A0A2K5WN54 60-396); assay: as above
T3 construct: extracellular domain; also called IL-6sR of a cynomolgus; cynomolgus IL-6R alpha subunit
T3 sequence: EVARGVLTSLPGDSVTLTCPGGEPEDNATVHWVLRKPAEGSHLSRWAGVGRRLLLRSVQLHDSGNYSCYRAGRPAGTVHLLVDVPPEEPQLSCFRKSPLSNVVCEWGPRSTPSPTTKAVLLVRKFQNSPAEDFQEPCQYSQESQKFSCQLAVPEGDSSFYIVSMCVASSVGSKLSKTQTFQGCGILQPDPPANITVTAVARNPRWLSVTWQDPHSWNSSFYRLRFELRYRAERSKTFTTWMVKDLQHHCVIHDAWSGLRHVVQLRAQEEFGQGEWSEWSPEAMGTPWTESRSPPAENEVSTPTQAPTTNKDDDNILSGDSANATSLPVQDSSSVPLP
Source text: as §1, §2

[4] = target: T4, Guinea Pig sIL6R (guinea pig); assay: as above
T4 construct: extracellular domain; also called guinea pig IL-6R; guinea pig IL-6R alpha subunit
Source text: as §1, §2

B1: BCD089 antibody (anti-IL-6sR) (antibody, IgG1, V domains shown)
VH: QVQLVQSGGGLVQPGGSLRLSCAASGFTFSSYYMSWVRQAPGKGLEWVSGIYSDGTTHYGDSVKGRFTISRDNAKNTVYLQLNSLRAEDTAMYYCAKGAGPTWWYALDAWGQGTLVTVSS
VL: DIQLTQSPSSVSVSVGERVTIDCKSSQSVLSASNTYLNWYQQKPGQAPQLLIYYASTRESGVPDRFSGSGSGTDFTLTISSLQAEDAAVYYCQQAYRAPVTFGQGTKLEIKR
notes: None of these passages names BCD089; also called BCD89; BCD-BCD-089 IgG1
binding result [1]: no binding
Kd [2]: 0.663 nM
Kd [3]: 2.4 nM
Kd [4]: 306 nM
